Test results as given in article PMC5129185.

Target: TTP TZF (RBD) (Homo sapiens, UniProt P26651 102-170)
Test: NMR

Sequence of TTP TZF (RBD) (P26651 102-170): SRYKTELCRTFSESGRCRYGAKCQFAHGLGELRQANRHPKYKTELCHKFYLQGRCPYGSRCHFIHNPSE

B1: ARE13 (NMR) (ssRNA)
RNA: UUUUAUUUAUUUU
- binding result: binds
